Assay results from US20260176358A1 (JIANGSU HENGRUI PHARMACEUTICALS, published 2026).
Positions count from the first letter of the chain named.

T1: human CGRP (human, UniProt P06881 83-119)
T1 peptide (looked up): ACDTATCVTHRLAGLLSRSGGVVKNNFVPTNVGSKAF

T2: rat CGRP (rat, UniProt P01256 83-119)
T2 peptide (looked up): T1 peptide (looked up) with A1S, D3N, N25D, K35E

B1: C1H1L1 (antibody, human IgG1, kappa, V domains shown)
VH: EVQLVQSGAEVKKPGSSVKVSCKASGYTFSTSWMNWVRQAPGQGLEWMGQIYPGDGYTNYSGKFRGRVTITADKSTSTAYMELSSLRSEDTAVYYCAGDYEALWGQGTTVTVSS
VL: DIVMTQTPLSLPVTPGEPASISCRSSQSLVHSNGNTYFHWYLQKPGQSPQLLIYEVSNRFSGVPDRFSGSGSGTDFTLKISRVEAEDVGVYYCSQSTHVPFTFGQGTKLEIKR
B2: C1H3L2 (antibody, human IgG1, kappa, V domains shown)
VH: B1 VH with S61N, G62V
VL: B1 VL with N33S
B3: C1H2L1 (antibody, human IgG1, kappa, V domains shown)
VH: B1 VH with S61Q
VL: B1 VL
B4: C1H1L2 (antibody, human IgG1, kappa, V domains shown)
VH: B1 VH
VL: B1 VL with N33S
B5: C21H2L2 (antibody, human IgG1, kappa, V domains shown)
VH: EVQLVQSGAEVKKPGASVKVSCKASGYTFTDYYMNWVRQAPGQRLEWIGDINPNQGGTNYNQKFKGRATLTVDKSASTAYMELSSLRSEDTAVYYCASIIIVPNYFDYWGQGTTVTVSS
VL: DIQMTQSPSSLSASVGDRVTITCKASQNVDTNVAWFQQKPGKSPKALIYSASYRYSGVPSRFSGSGSGTDFTLTISSLQPEDFATYYCQQYNNYPYTFGGGTKVEIKR
B6: C9H3L1 (antibody, human IgG1, kappa, V domains shown)
VH: EVQLVQSGAEVKKPGASVKVSCKASGYTFTDYYMNWVRQAPGQRLEWMGVINPYQGRTTYNRKFKGRVTITVDKSASTAYMELSSLRSEDTAVYYCASLLIRPHYFDYWGQGTTVTVSS
VL: B5 VL with D30G, F36Y, F83V, Y87H, N93F, G100Q, V104L
B7: C28H1L1 (antibody, human IgG1, kappa, V domains shown)
VH: B5 VH with I48M, Q55N, G56V, G57V, N59T, A68V, L70I, N104D
VL: B5 VL with L11V, D30G, T31S, F36Y, N93S
B8: C21H1L2 (antibody, human IgG1, kappa, V domains shown)
VH: B5 VH with Q55N, G56V
VL: B5 VL
B9: C9H4L1 (antibody, human IgG1, kappa, V domains shown)
VH: B6 VH with M48I, V68A, I70L
VL: B5 VL with D30G, F36Y, F83V, Y87H, N93F, G100Q, V104L
B10: C21H4L1 (antibody, human IgG1, kappa, V domains shown)
VH: B5 VH with Q55T
VL: B5 VL with S43A, A46S
B11: C9H6L1 (antibody, human IgG1, kappa, V domains shown)
VH: B6 VH with M48I, Q55S, V68A, I70L
VL: B5 VL with D30G, F36Y, F83V, Y87H, N93F, G100Q, V104L
B12: C28H7L1 (antibody, human IgG1, kappa, V domains shown)
VH: B5 VH with Q55T, G57V, N59T, N104D
VL: B5 VL with L11V, D30G, T31S, F36Y, N93S
B13: C21H4L2 (antibody, human IgG1, kappa, V domains shown)
VH: B5 VH with Q55T
VL: B5 VL
B14: C28H5L1 (antibody, human IgG1, kappa, V domains shown)
VH: B5 VH with Q55S, G57V, N59T, N104D
VL: B5 VL with L11V, D30G, T31S, F36Y, N93S
B15: C9H2L1 (antibody, human IgG1, kappa, V domains shown)
VH: B6 VH with M48I, Q55N, G56V, V68A, I70L
VL: B5 VL with D30G, F36Y, F83V, Y87H, N93F, G100Q, V104L
B16: C9H5L1 (antibody, human IgG1, kappa, V domains shown)
VH: B6 VH with Q55S
VL: B5 VL with D30G, F36Y, F83V, Y87H, N93F, G100Q, V104L
B17: C28H4L1 (antibody, human IgG1, kappa, V domains shown)
VH: B5 VH with G57V, N59T, N104D
VL: B5 VL with L11V, D30G, T31S, F36Y, N93S
B18: C28H3L1 (antibody, human IgG1, kappa, V domains shown)
VH: B5 VH with I48M, G57V, N59T, A68V, L70I, N104D
VL: B5 VL with L11V, D30G, T31S, F36Y, N93S
B19: C21H1L1 (antibody, human IgG1, kappa, V domains shown)
VH: B5 VH with Q55N, G56V
VL: B5 VL with S43A, A46S
B20: C9H1L1 (antibody, human IgG1, kappa, V domains shown)
VH: B6 VH with Q55N, G56V
VL: B5 VL with D30G, F36Y, F83V, Y87H, N93F, G100Q, V104L
B21: C9H7L1 (antibody, human IgG1, kappa, V domains shown)
VH: B6 VH with Q55T
VL: B5 VL with D30G, F36Y, F83V, Y87H, N93F, G100Q, V104L
B22: C21H3L1 (antibody, human IgG1, kappa, V domains shown)
VH: B5 VH with I48M, Q55S, A68V, L70I
VL: B5 VL with S43A, A46S
B23: PL-1 (bispecific antibody)
chain 1: not shown
chain 2: DIVLTQSPASLAVSPGQRATITCRASESVSIHGTHLMHWYQQKPGQPPKLLIYAASKLESGVPARFSGSGSGTDFTLTINPVEAEDTANYYCQQSFEDPLTFGQGTKLEIKGGGGSGIPPKIECLPIDISIDEGKVLTVASAFTGEPTPEVTWSTGGRKIHSQEQGRFHIENTDDLTTLIIKDVQKQDGGLYTLTLRNEFGSDSATVNIHIRSI
chain 3: not shown
chain 4: not shown
B24: PL-3 (bispecific antibody)
chain 1: not shown
chain 2: B23 chain 2 with V136C, L176S, I180T
chain 3: not shown
chain 4: not shown
B25: PL-5 (bispecific antibody)
chain 1: not shown
chain 2: B23 chain 2 with L176S, I180T
chain 3: not shown
chain 4: not shown
B26: PL-2 (bispecific antibody)
chain 1: not shown
chain 2: B23 chain 2 with L176S, I180T
chain 3: not shown
chain 4: not shown
B27: PL-6 (bispecific antibody)
chain 1: not shown
chain 2: B23 chain 2 with V136C, L176S, I180T
chain 3: not shown
chain 4: not shown
B28: PL-7 (bispecific antibody)
chain 1: not shown
chain 2: B23 chain 2 with A142C, L176S, I180T
chain 3: not shown
chain 4: not shown
B29: PL-4 (bispecific antibody)
chain 1: not shown
chain 2: B23 chain 2 with A142C, L176S, I180T
chain 3: not shown
chain 4: not shown

Target: T1, human CGRP
Experiment: ELISA, coated CGRP
Description: (§1) In this test example, the abilities of the chimeric antibodies and humanized antibodies of C1 #, C9 #, C21 #, and C28 #to bind to human CGRP and rat CGRP were assessed using ELISAs. Plates were coated with […] human CGRP and rat CGRP, respectively, and blocked, and the antibodies, serially diluted, were then added. The plates were incubated for 1 h and washed, and a horseradish peroxidase-labeled anti-human Fc secondary antibody was then added. After incubation, color development was performed. […] The plates were incubated for 1 h and washed, and the antibodies, serially diluted, were then added. The plates were incubated for 1 h and washed, and a horseradish peroxidase-labeled streptavidin secondary antibody was then added. After incubation, color development was performed.

| EC50 | Binder |
| --- | --- |
| 1.83 nM | B1 |
| 1.39 nM | B2 |
| 2.61 nM | B3 |
| 2.72 nM | B4 |
| 3.4 nM | B5 |
| 1.3 nM | B6 |
| 1.34 nM | B7 |
| 2.57 nM | B8 |
| 1.25 nM | B9 |
| 2.9 nM | B10 |
| 1.33 nM | B11 |
| 1.47 nM | B12 |
| 2.8 nM | B13 |
| 1.58 nM | B14 |
| 1.41 nM | B15 |
| 1.29 nM | B16 |
| 1.43 nM | B17 |
| 1.65 nM | B18 |
| 2.54 nM | B19 |
| 1.58 nM | B20 |
| 1.3 nM | B21 |
| 3.57 nM | B22 |

Target: T2, rat CGRP
Experiment: ELISA, coated CGRP
Description: as §1

| EC50 | Binder |
| --- | --- |
| 3.1 nM | B1 |
| 1.97 nM | B2 |
| 2.38 nM | B3 |
| 2.44 nM | B4 |
| 9.27 nM | B5 |
| 4.27 nM | B6 |
| 6.28 nM | B7 |
| 5.26 nM | B8 |
| 4.2 nM | B9 |
| 7.36 nM | B10 |
| 3.13 nM | B11 |
| 2.72 nM | B12 |
| 5.68 nM | B13 |
| 3.72 nM | B14 |
| 4.32 nM | B15 |
| 4.48 nM | B16 |
| 6.45 nM | B17 |
| 3.97 nM | B18 |
| 3.86 nM | B19 |
| 5.3 nM | B20 |
| 3.57 nM | B21 |
| 7.94 nM | B22 |

The binders below were run against hPDL1 (human, UniProt Q9NZQ7 19-238) (assay: ELISA of Test Example 4 of WO2021139758).
hPDL1, sequence (Q9NZQ7 19-238 limits assumed): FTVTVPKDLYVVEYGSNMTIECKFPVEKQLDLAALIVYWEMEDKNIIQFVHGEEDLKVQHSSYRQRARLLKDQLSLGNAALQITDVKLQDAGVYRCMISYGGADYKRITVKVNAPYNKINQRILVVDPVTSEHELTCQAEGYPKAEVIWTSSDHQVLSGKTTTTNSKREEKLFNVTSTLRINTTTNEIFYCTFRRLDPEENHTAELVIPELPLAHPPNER

| EC50 | Binder |
| --- | --- |
| 1.6 nM | B23 |
| 0.6 nM | B24 |
| 0.7 nM | B25 |
| 0.5 nM | B26 |
| 0.8 nM | B27 |
| 0.5 nM | B28 |
| 0.7 nM | B29 |

These binders were tested against hCTLA4 (human, UniProt P16410 36-161) (assay: ELISA of Test Example 4 of WO2021139758).
hCTLA4, sequence (P16410 36-161 limits assumed): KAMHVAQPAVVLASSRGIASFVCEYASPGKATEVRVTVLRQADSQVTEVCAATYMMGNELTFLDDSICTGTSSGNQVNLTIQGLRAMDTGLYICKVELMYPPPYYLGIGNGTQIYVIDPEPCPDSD

| EC50 | Binder |
| --- | --- |
| 16.5 nM | B23 |
| 7.9 nM | B24 |
| 6.7 nM | B25 |
| 8 nM | B26 |
| 5.3 nM | B27 |
| 7.3 nM | B28 |
| 6.5 nM | B29 |
